This assay has as its target recombinant human Pcsk9 (aa 31-692) with C-terminal his6 tag (human) (UniProt Q8NBP7). The assay is described as follows: TR-FRET, disruption of hLDL-R-Eu and hPcsk9-AF. On the technique in general: In TR-FRET formats the signal depends on donor and acceptor labels being close together.

Chain of recombinant human Pcsk9 (aa 31-692) with C-terminal his6 tag (human) (Q8NBP7 other isoform, or with tags, fused parts or gaps limits assumed, form in doubt): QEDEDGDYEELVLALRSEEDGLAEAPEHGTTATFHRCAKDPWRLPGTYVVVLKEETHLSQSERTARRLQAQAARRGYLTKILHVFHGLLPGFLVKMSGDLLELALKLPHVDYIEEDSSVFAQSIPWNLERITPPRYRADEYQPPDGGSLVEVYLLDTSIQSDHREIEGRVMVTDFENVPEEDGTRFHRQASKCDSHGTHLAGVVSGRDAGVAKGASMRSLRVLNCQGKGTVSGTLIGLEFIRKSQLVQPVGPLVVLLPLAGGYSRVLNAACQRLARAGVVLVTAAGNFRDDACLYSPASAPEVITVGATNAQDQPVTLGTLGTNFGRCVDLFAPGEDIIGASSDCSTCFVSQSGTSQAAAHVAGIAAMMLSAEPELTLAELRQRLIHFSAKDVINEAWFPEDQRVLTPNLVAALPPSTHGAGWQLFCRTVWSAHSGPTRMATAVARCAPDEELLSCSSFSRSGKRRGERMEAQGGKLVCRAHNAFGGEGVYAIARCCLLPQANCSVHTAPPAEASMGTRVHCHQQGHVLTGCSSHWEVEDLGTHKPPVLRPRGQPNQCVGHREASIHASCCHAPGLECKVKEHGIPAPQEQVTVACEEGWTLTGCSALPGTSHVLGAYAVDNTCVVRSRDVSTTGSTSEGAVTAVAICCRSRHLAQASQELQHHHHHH

Usually IC50 stands for the midpoint of a concentration-inhibition curve. As for EGF-A peptide, the concentration for half-maximal inhibition (IC50) was 2500 nM.

(Values after US20110142849A1.)
